Substrate in data set [1]: CC1(C)S[C@@H]2[C@H](NC(=O)Cc3ccccc3)C(=O)N2[C@H]1C(=O)O
Put plainly: (§1) Activity of Escherichia coli CTX-M-15 assessed as drug hydrolysis by spectrophotometry.

Substrate in data set [2]: Nc1nc(/C(=N/O)C(=O)N[C@@H]2C(=O)N3C(C(=O)O)=C(/C=C4\CCN([C@@H]5CCNC5)C4=O)CS[C@H]23)ns1
The description is as §1.

Substrate in data set [3]: CO/N=C(\C(=O)N[C@@H]1C(=O)N2C(C(=O)O)=C(COC(C)=O)CS[C@H]12)c1csc(N)n1
Described as §1.

Substrate in data set [4]: CO/N=C(\C(=O)N[C@@H]1C(=O)N2C(C(=O)[O-])=C(C[N+]3(C)CCCC3)CS[C@H]12)c1csc(N)n1
The description is as §1.

Substrate in data set [5]: O=C(Cc1cccs1)N[C@@H]1C(=O)N2C(C(=O)[O-])=C(C[n+]3ccccc3)CS[C@H]12
Described as §1.

Substrate in data set [6]: CC(C)(O/N=C(\C(=O)N[C@@H]1C(=O)N2C(C(=O)[O-])=C(C[n+]3ccccc3)CS[C@H]12)c1csc(N)n1)C(=O)O
The data set is described as §1.

Substrate in data set [7]: CC1(C)S[C@@H]2[C@H](NC(=O)Cc3ccccc3)C(=O)N2[C@H]1C(=O)O
The settings on record: Escherichia coli.

Substrate in data set [8]: Nc1nc(/C(=N/O)C(=O)N[C@@H]2C(=O)N3C(C(=O)O)=C(/C=C4\CCN([C@@H]5CCNC5)C4=O)CS[C@H]23)ns1
The settings on record: Escherichia coli.

Substrate in data set [9]: CO/N=C(\C(=O)N[C@@H]1C(=O)N2C(C(=O)O)=C(COC(C)=O)CS[C@H]12)c1csc(N)n1
To be noted: Escherichia coli.

Substrate in data set [10]: CO/N=C(\C(=O)N[C@@H]1C(=O)N2C(C(=O)[O-])=C(C[N+]3(C)CCCC3)CS[C@H]12)c1csc(N)n1
The settings on record: Escherichia coli.

Substrate in data set [11]: O=C(Cc1cccs1)N[C@@H]1C(=O)N2C(C(=O)[O-])=C(C[n+]3ccccc3)CS[C@H]12
To be noted: Escherichia coli.

Substrate in data set [12]: CC(C)(O/N=C(\C(=O)N[C@@H]1C(=O)N2C(C(=O)[O-])=C(C[n+]3ccccc3)CS[C@H]12)c1csc(N)n1)C(=O)O
The settings on record: Escherichia coli.

Substrate in data set [13]: CC1(C)S[C@@H]2[C@H](NC(=O)Cc3ccccc3)C(=O)N2[C@H]1C(=O)O
In words: (§2) Ratio of Kcat to Km of Providencia stuartii AmpC assessed as drug hydrolysis by spectrophotometry.

Substrate in data set [14]: Nc1nc(/C(=N/O)C(=O)N[C@@H]2C(=O)N3C(C(=O)O)=C(/C=C4\CCN([C@@H]5CCNC5)C4=O)CS[C@H]23)ns1
The data set is described as §2.

Substrate in data set [15]: CO/N=C(\C(=O)N[C@@H]1C(=O)N2C(C(=O)[O-])=C(C[N+]3(C)CCCC3)CS[C@H]12)c1csc(N)n1
The data set is described as §2.

Substrate in data set [16]: O=C(Cc1cccs1)N[C@@H]1C(=O)N2C(C(=O)[O-])=C(C[n+]3ccccc3)CS[C@H]12
The description is as §2.

Substrate in data set [17]: CC(C)(O/N=C(\C(=O)N[C@@H]1C(=O)N2C(C(=O)[O-])=C(C[n+]3ccccc3)CS[C@H]12)c1csc(N)n1)C(=O)O
The description is as §2.

Substrate in data set [18]: CC1(C)S[C@@H]2[C@H](NC(=O)Cc3ccccc3)C(=O)N2[C@H]1C(=O)O
Put plainly: (§3) Activity of Providencia stuartii AmpC assessed as drug hydrolysis by spectrophotometry.

Substrate in data set [19]: Nc1nc(/C(=N/O)C(=O)N[C@@H]2C(=O)N3C(C(=O)O)=C(/C=C4\CCN([C@@H]5CCNC5)C4=O)CS[C@H]23)ns1
Described as §3.

Substrate in data set [20]: CO/N=C(\C(=O)N[C@@H]1C(=O)N2C(C(=O)[O-])=C(C[N+]3(C)CCCC3)CS[C@H]12)c1csc(N)n1
The data set is described as §3.

Substrate in data set [21]: O=C(Cc1cccs1)N[C@@H]1C(=O)N2C(C(=O)[O-])=C(C[n+]3ccccc3)CS[C@H]12
Described as §3.

Substrate in data set [22]: CC(C)(O/N=C(\C(=O)N[C@@H]1C(=O)N2C(C(=O)[O-])=C(C[n+]3ccccc3)CS[C@H]12)c1csc(N)n1)C(=O)O
Described as §3.

Substrate in data set [23]: CC1(C)S[C@@H]2[C@H](NC(=O)Cc3ccccc3)C(=O)N2[C@H]1C(=O)O
In words: (§4) Activity of Klebsiella oxytoca beta-lactamase K1assessed as drug hydrolysis by spectrophotometry.

Substrate in data set [24]: Nc1nc(/C(=N/O)C(=O)N[C@@H]2C(=O)N3C(C(=O)O)=C(/C=C4\CCN([C@@H]5CCNC5)C4=O)CS[C@H]23)ns1
Described as §4.

Substrate in data set [25]: CO/N=C(\C(=O)N[C@@H]1C(=O)N2C(C(=O)O)=C(COC(C)=O)CS[C@H]12)c1csc(N)n1
The description is as §4.

Substrate in data set [26]: CO/N=C(\C(=O)N[C@@H]1C(=O)N2C(C(=O)[O-])=C(C[N+]3(C)CCCC3)CS[C@H]12)c1csc(N)n1
Described as §4.

Substrate in data set [27]: O=C(Cc1cccs1)N[C@@H]1C(=O)N2C(C(=O)[O-])=C(C[n+]3ccccc3)CS[C@H]12
The data set is described as §4.

Substrate in data set [28]: CC(C)(O/N=C(\C(=O)N[C@@H]1C(=O)N2C(C(=O)[O-])=C(C[n+]3ccccc3)CS[C@H]12)c1csc(N)n1)C(=O)O
The data set is described as §4.

Substrate in data set [29]: CC1(C)S[C@@H]2[C@H](NC(=O)Cc3ccccc3)C(=O)N2[C@H]1C(=O)O
In words: (§5) Ratio of Kcat to Km of Klebsiella oxytoca beta-lactamase K1 assessed as drug hydrolysis by spectrophotometry.

Substrate in data set [30]: Nc1nc(/C(=N/O)C(=O)N[C@@H]2C(=O)N3C(C(=O)O)=C(/C=C4\CCN([C@@H]5CCNC5)C4=O)CS[C@H]23)ns1
The description is as §5.

Substrate in data set [31]: CO/N=C(\C(=O)N[C@@H]1C(=O)N2C(C(=O)O)=C(COC(C)=O)CS[C@H]12)c1csc(N)n1
The description is as §5.

Substrate in data set [32]: CO/N=C(\C(=O)N[C@@H]1C(=O)N2C(C(=O)[O-])=C(C[N+]3(C)CCCC3)CS[C@H]12)c1csc(N)n1
The description is as §5.

Substrate in data set [33]: O=C(Cc1cccs1)N[C@@H]1C(=O)N2C(C(=O)[O-])=C(C[n+]3ccccc3)CS[C@H]12
The description is as §5.

Substrate in data set [34]: CC(C)(O/N=C(\C(=O)N[C@@H]1C(=O)N2C(C(=O)[O-])=C(C[n+]3ccccc3)CS[C@H]12)c1csc(N)n1)C(=O)O
The data set is described as §5.

B1: Beta-lactamase CTX-M (Escherichia coli), Q9EXV5 (protein)
chain: MVKKSLRQFTLMATATVTLLLGSVPLYAQTADVQQKLAELERQSGGRLGVALINTADNSQILYRADERFAMCSTSKVMAAAAVLKKSESEPNLLNQRVEIKKSDLVNYNPIAEKHVNGTMSLAELSAAALQYSDNVAMNKLIAHVGGPASVTAFARQLGDETFRLDRTEPTLNTAIPGDPRDTTSPRAMAQTLRNLTLGKALGDSQRAQLVTWMKGNTTGAASIQAGLPASWVVGDKTGSGGYGTTNDIAVIWPKDRAPLILVTYFTQPQPKAESRRDVLASAAKIVTDGL
As to B1, the Km in data set [1] is 8.7 µM; in data set [2], 19 µM; in data set [3], 26 µM; in data set [4], 180 µM; in data set [5] it was 39 µM; in [6], 240 µM. For the same protein, the kcat in data set [1] amounted to 47 s⁻¹; in [2] it was 270 s⁻¹; in [3], 180 s⁻¹; in [4], 45 s⁻¹; in data set [5] it was 190 s⁻¹; in data set [6], 4.4 s⁻¹. Besides, the kcat/Km in [7] was 5.4e+06 M⁻¹ s⁻¹; in [8], 1.4e+07 M⁻¹ s⁻¹; in data set [9], 6.9e+06 M⁻¹ s⁻¹; in data set [10], 250000 M⁻¹ s⁻¹; in [11], 4.9e+06 M⁻¹ s⁻¹; in data set [12], 18000 M⁻¹ s⁻¹.

B2: Beta-lactamase (Providencia stuartii), O69773 (protein)
chain: MDNSMKNIFRQGRLFIALSLAMTSISAFALTQQEVDDIIKPLMKQEQIPGMSVAISVNGKQAIYHYGVQSKQTQIPVSDRTLYEIGSLSKTFTATLATYAQIQGKLDFSQSVSHYLPELKGSAFDNVSVMNLATHTSGLSLFVPSDIKTNDQLMAYYQKWLPDNEVGQYRSYSNLGVGLLGIVTAKQLNMPFSQAMEKLMLPSLGLKHTYIHVPKSQEKYYAQGYNKQNQPVRLNLEILGPEAYGLKSNAKDLIRYLEINMQSIKVAKTWQEAIENTHTGVYLTDSFVQDMMWESYPWPVSLSQLLQGNRDDMALKPQKVELIKPAMAPEVRAYYNKTGSSNGFATYAIFIPEEKIAIVMLSNKWIPIPQRITATYQLLEKIER
Consider B2, for which the kcat/Km was found to be 250000 M⁻¹ s⁻¹ in [13]; 620 M⁻¹ s⁻¹ in data set [14]; 3800 M⁻¹ s⁻¹ in data set [15]; 580000 M⁻¹ s⁻¹ in data set [16]; 7300 M⁻¹ s⁻¹ in data set [17]. In addition, the Km in data set [18] was 14 µM; in data set [19], 260 µM; in [20], 780 µM; in data set [21] it was 920 µM; in data set [22], 26 µM. Moreover, the kcat in data set [18] was 3.3 s⁻¹; in data set [19], 0.16 s⁻¹; in data set [20], 3 s⁻¹; in data set [21], 530 s⁻¹; in data set [22], 0.19 s⁻¹.

B3: Beta-lactamase (Klebsiella oxytoca), Q8RT60 (protein)
chain: MIKSSWRKIAMLAAAVPLLLASGALWASTDAIHQKLTDLEKRSGGRLGVALINTADNSQILYRGDERFAMCSTSKVMAAAAVLKQSESNKEVVNKRLEINAADLVVWSPITEKHLQSGMTLAELSAATLQYSDNTAMNLIIGYLGGPEKVTAFARSIGDATFRLDRTEPTLNTAIPGDERDTSTPLAMAESLRKLTLGDALGEQQRAQLVTWLKGNTTGGQSIRAGLPESWVVGDKTGAGDYGTTNDIAVIWPEDHAPLILVTYFTQPQQDAKNRKEVLAAAAKIVTEGL
As for B3, the Km in data set [23] was found to be 40 µM; in [24] it was 32 µM; in [25], 550 µM; in data set [26], 1000 µM; in data set [27], 100 µM; in [28], 140 µM. For the same protein, the kcat in data set [23] was 1100 s⁻¹; in data set [24] it was 230 s⁻¹; in data set [25], 88 s⁻¹; in data set [26], 59 s⁻¹; in [27], 700 s⁻¹; in data set [28] it was 0.018 s⁻¹. The kcat/Km in [29] came out at 2.8e+07 M⁻¹ s⁻¹; in [30], 7.2e+06 M⁻¹ s⁻¹; in data set [31] it was 160000 M⁻¹ s⁻¹; in data set [32], 59000 M⁻¹ s⁻¹; in data set [33], 7e+06 M⁻¹ s⁻¹; in [34] it was 130 M⁻¹ s⁻¹.

What is called Km is the substrate concentration at which the rate is half of its maximum. One may read the kcat as the number of substrate molecules converted per active site and unit of time at saturation. By kcat/Km is commonly meant the turnover number divided by the Michaelis constant.

Values taken from ChEMBL document CHEMBL1143427, “Interactions of ceftobiprole with beta-lactamases from molecular classes A to D” (Antimicrob Agents Chemother, 2007).
